The values that follow come from the RNAGym collection of RNA variant scans (doi:10.1093/nar/gkz1192).

Sequences and labels used below:
B1: CPEB3 Ribozyme (parent)
chain: UAACAGGGGGCCACAGCAGAAGCGUUCACGUCGCAGCCCCUGUCAGAUUCUGGUGAAUCUGCGAAUUCUGCUGUAUAUCUC

This data set covers variants of B1. Kind of data set: self-cleavage, relative activity (ratio to wild type); higher = more cleavage; in vitro, sequencing. The essentials:
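Libraries of CPEB3 self-cleaving ribozyme mutants came from rounds of error-prone PCR and carried barcodes, which DNA sequencing matched to variants. In vitro transcription used T7 RNA polymerase at 37°C for 5 hours, with a further 15 min in DNase I before EDTA stopped the reaction; the ribozymes cleaved during both steps. The RNA was reverse transcribed with template switching and sequenced on Illumina. Relative activity is the cleaved/total read fraction of a variant divided by that of the unmutated ribozyme, averaged over three batches with at least 5 reads.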
On to U43A, for which the self-cleavage came out at 1.17. U43C: the self-cleavage was found to be 0.67.

Regarding U43A C62U, the self-cleavage was 0.39. With U43C G52C the figure was 0.77; with U43C G52U, 1.06. For U43C G52A the value was 0.92; for U43A A56G, 0.97. With U43A A56C the figure was 0.73. Take U43A A56U: the self-cleavage was 0.88. With U43A U54C the figure was 1.19; with U43A U54A, 1.25; with U43A C71U, 0.49. For U43C A77G the value was 0.58. Consider U43C A77U, for which the self-cleavage stood at 0.78. With U43C G46C the figure was 0.16; with U43C G46A, 0.22. For U43C G46U the value was 0.16; for U43C G73C, 1.19. With U43C G73A the figure was 1.13; with U43C G73U, 1.2; with U43C A56G, 0.33. As to U43C A56C, the self-cleavage is 0.18. With U43C A56U the figure was 0.26; with U43A G55A, 0.77; with U43A C79A, 1.22.

As for U43A G63U, the self-cleavage is 1.26. Consider U43A G63A, for which the self-cleavage amounted to 1.13. With U43C U48C the figure was 0.25; with U43C U48A, 0.29; with U43C A65U, 0.19. Turning to U43C A65G, the self-cleavage is 0.31. With U43A G73A the figure was 1.28; with U43A G73U, 1.26.

On to U43A U72C, for which the self-cleavage came out at 1.17. With U43A U72A the figure was 0.71. With U43A U72G the figure was 1.02; with U43A A57G, 1.05. In the case of U43A A57C, the self-cleavage came out at 0.47.

Regarding U43A A57U, the self-cleavage was 1.11.

Take U43C C59U: the self-cleavage amounted to 0.52.

Turning to U43C C59A, the self-cleavage was 0.12. For U43A A75G the value was 1.01.

As to U43A A75U, the self-cleavage stood at 1.19. With U43A A75C, the self-cleavage is 1.36. With G42U U67C the figure was 0.08; with U43C G53U, 0.6; with U43C G53A, 0.87. Consider U43C G53C, for which the self-cleavage was 0.88.

Take G42U U58A: the self-cleavage was found to be 0.11. Take U43C A57U: the self-cleavage turned out to be 0.22. For U43C A57G the value was 0.3; for U43C G61A, 0.22. For U43A C59G, the self-cleavage came out at 0.41. With G42U U76C the figure was 0.93; with U43C A75G, 0.39; with U43C A75C, 0.84.

Turning to U43C A75U, the self-cleavage was determined as 0.62. U43C C50A: the self-cleavage worked out at 0.31. As for U43C C50U, the self-cleavage was found to be 0.24. For U43A A45C the value was 0.39. For U43A A45U the value was 0.82; for U43A A45G, 0.75; for U43A G53A, 1.2. With U43A C50A the figure was 1.07; with G42U U80C, 0.51; with G42U U69G, 0.14.

With U43C C68A, the self-cleavage turned out to be 0.28. Consider U43C C68U, for which the self-cleavage was 0.32. For U43C C68G the value was 0.11; for U43C C71G, 0.28.

Turning to U43C C71U, the self-cleavage is 0.36.

As for U43C C71A, the self-cleavage is 0.36. Take U43C C81U: the self-cleavage stood at 0.7. With U43C C81A the figure was 0.92; with U43C U58A, 0.29; with U43C U58C, 0.23. For U43C U58G the value was 0.19; for U43A U78G, 1.29; for U43A U78C, 1.13. For U43A U78A the value was 1.29; for U43C A64U, 0.29; for U43C A64G, 0.51. Turning to U43A C68U, the self-cleavage amounted to 1.15. With U43A U66A the figure was 0.69; with U43A U66C, 0.53.

In the case of U43A U80C, the self-cleavage is 1.15. With U43A U80A the figure was 1.22; with U43A C44U, 1.11. For G42U U74C the value was 0.35; for U43A G52A, 1.23. Consider U43A G52U, for which the self-cleavage worked out at 1.26. For U43A G52C the value was 1.19. In the case of U43A A64U, the self-cleavage was 0.51. With U43A A64G the figure was 1.04; with U43C G55C, 0.33; with U43C G55U, 0.52. For U43A A77U the value was 1.23; for U43A A77G, 1.2.

In the case of U43A A77C, the self-cleavage came to 1.18. Regarding U43C U51A, the self-cleavage worked out at 0.71.

With U43C U51C, the self-cleavage turned out to be 0.77. Regarding U43C U51G, the self-cleavage is 0.75. For the variant U43C C79A, the self-cleavage was 0.8. For U43C C79U the value was 0.91; for U43A U69C, 0.72; for U43A U69A, 0.79. As to U43A U69G, the self-cleavage was 0.82.

Turning to U43A U49A, the self-cleavage was determined as 0.8. With U43A U49C, the self-cleavage amounted to 0.53. For U43A U49G the value was 0.52; for U43C A45C, 0.3; for U43C A45G, 0.5. For U43C A45U, the self-cleavage was 0.3. For U43A G46A the value was 0.44. For U43A G46U the value was 0.45; for U43C U54G, 0.49.

Regarding U43C U54C, the self-cleavage was found to be 0.32. For U43C U54A the value was 0.69. On to G42U U49C, for which the self-cleavage came to 0.02. For G42U U60A the value was 0.21. As for G42U U60C, the self-cleavage came to 0.17.

Regarding U43A U48C, the self-cleavage turned out to be 0.71. For U43A G70U the value was 0.54; for U43A U76C, 1.14. For U43A U76A the value was 1.23; for U43A A65U, 0.57; for U43A A65G, 0.93. For U43A U58C the value was 0.67; for U43A U58G, 0.31. As to U43A U58A, the self-cleavage stood at 0.72. Take U43A A47U: the self-cleavage is 0.63. With U43A A47G the figure was 1.06; with U43A G61A, 0.97. With U43A G61C the figure was 0.36; with U43C C44U, 0.38; with U43C C44G, 0.09. For G42U U66A the value was 0.26. Turning to G42U U66C, the self-cleavage stood at 0.48.

Consider G42U U66G, for which the self-cleavage came to 0.32. For U43C G63C the value was 0.3; for U43C G63A, 0.47.

In the case of U43C C62A, the self-cleavage turned out to be 0.31.

On to U43C C62U, for which the self-cleavage amounted to 0.3.

U43C C62G: the self-cleavage was 0.21.

Consider U43A U74C, for which the self-cleavage was found to be 1.24. For U43A U74A the value was 1.35. With U43C G70A the figure was 0.31. U43C G70U: the self-cleavage was 0.18. For U43C G70C, the self-cleavage is 0.1. With U43C U60A, the self-cleavage is 0.27. On to U43C U60G, for which the self-cleavage came out at 0.3. With U43C U60C the figure was 0.26. For U43A U51A the value was 0.97; for U43A U51C, 0.88; for U43A U51G, 1.15. On to U43A U67C, for which the self-cleavage came out at 0.33. With U43A U67A the figure was 0.83. With U43C U49A the figure was 0.26. With U43C U49C the figure was 0.24; with U43C U49G, 0.26. U43C U66A: the self-cleavage was found to be 0.24. For U43C U66C the value was 0.33. Turning to U43C A47G, the self-cleavage was 0.58. For U43C A47U the value was 0.39; for U43C A47C, 0.06; for U43A U60C, 0.54.

Turning to U43A U60A, the self-cleavage stood at 0.53.
